Laboratory results published in PMC10570040.

How the values were obtained:
[1] = biological target: T1, EnfR wild-type (TON_1525) (Thermococcus onnurineus NA1) (UniProt B6YTS4); assay: EMSA; conditions: EMSA: 10 mM Tris pH 7.4, 200 mM KCl, 2 mM DTT, 0.2 mM EDTA, 37 C 20 min, ITC: 10 mM Tris-HCl pH 7.4, 200 mM KCl, 1 mM TCEP, 25 C, footprint: 20 mM …
T1 sequence: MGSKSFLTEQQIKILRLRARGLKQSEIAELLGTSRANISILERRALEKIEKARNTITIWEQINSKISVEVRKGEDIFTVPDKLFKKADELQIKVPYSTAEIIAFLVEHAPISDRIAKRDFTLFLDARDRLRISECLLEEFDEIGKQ

[2] = biological target: T1, EnfR wild-type (TON_1525) (Thermococcus onnurineus NA1); assay: DNase I footprinting; conditions: EMSA: 10 mM Tris pH 7.4, 200 mM KCl, 2 mM DTT, 0.2 mM EDTA, 37 C 20 min, ITC: 10 mM Tris-HCl pH 7.4, 200 mM KCl, 1 mM TCEP, 25 C, footprint: 20 mM …

Row | Sequence | binding [1] | binding [2]
1 | AACAGGGTGTTACATACTTTTATTTTCAATTCTAAGCTTCAAAAAACTCTTTTAAAAGTGAACATCCAATTAGGTTTGGGAAATGGTAAACAAAATTGTAAAAGGGTGTTTTGAACCAAACGTGGGGTGATAGAAAGATGGCATTTAT (double strand) [P1582] | binds | 
2 | GAGAGTTTTACTGTCTCTAAATGAAAGGTTCTAATACGGTGGATCGAATAATTTCTTGCGTTTTTATCCGGATCGCCGAACACGATTCCATCTTAAAATCTTTTTGTTTACATTATACGAGGTGATCAACAATGCCAGCTTTTTCCGGTT (double strand) [150-bp codh promoter probe] |  | binds
